Reference: patent publication US20240383985A1 (published 2024)
Like-named read-outs stand apart in the source and are kept apart here.

Experiments:
[1] = molecular target: T1, CD33 naturally expressed on HL60 cells (human, UniProt P20138 18-364); experiment: FACS
[2] = molecular target: T1, CD33 naturally expressed on HL60 cells; experiment: FACS; remark: listed apart in the source
[3] = molecular target: CD38 naturally expressed on Daudi cells (human, UniProt P28907 1-300); experiment: FACS; FIG. 24

T1 sequence (P20138 18-364): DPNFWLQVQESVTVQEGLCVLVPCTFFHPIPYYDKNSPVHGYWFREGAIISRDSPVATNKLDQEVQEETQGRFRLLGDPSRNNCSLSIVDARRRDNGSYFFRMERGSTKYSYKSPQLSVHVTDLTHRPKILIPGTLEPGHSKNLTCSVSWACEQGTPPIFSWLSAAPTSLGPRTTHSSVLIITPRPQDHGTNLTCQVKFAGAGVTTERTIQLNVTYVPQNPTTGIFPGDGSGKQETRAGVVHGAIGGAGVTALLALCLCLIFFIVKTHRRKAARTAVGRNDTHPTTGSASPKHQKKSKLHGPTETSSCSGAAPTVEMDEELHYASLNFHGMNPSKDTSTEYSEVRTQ

EC50 [1] [nM] | EC50 [2] [nM] | EC50 [3] [nM] | Binder
2.89 | 3.31 | – | CD33 antibody IgG1 wt subtype QP41154116 (antibody, V domains shown) VH: QVQLVQSGAEVKKPGESVKVSCKASGYTFTNYGMNWVKQAPGQGLEWMGWINTYTGEPTYADKFQGRVTMTTDTSTSTAYMEIRNLGGDDTAVYYCARWSWSDGYYVYFDYWGQGTSVTVSS VL: DIVMTQSPDSLTVSLGERTTINCKSSQSVLDSSTNKNSLAWYQQKPGQPPKLLLSWASTRESGIPDRFSGSGSGTDFTLTIDSPQPEDSATYYCQQSAHFPITFGQGTRLEIKR
– | 2.31 | – | QP42824285 (antibody) chain 1: MEFGLSWLFLVAILKGVQCQVQLVQSGAEVKKPGESVKVSCKASGYTFTNYGMNWVKQAPGQGLEWMGWINTYTGEPTYADKFQGRVTMTTDTSTSTAYMEIRNLGGDDTAVYYCARWSWSDGYYVYFDYWGQGTSVTVSSGGGSGGGGSYVLTQPSSVSVAPGQTATISCGGHNIGSKNVHWYQQRPGQSPVLVIYQDNKRPSGIPERFSGSNSGNTATLTISGTQAMDEADYYCQVWDNYSVLFGGGTKLTVLGGGGSGGGGSGGGGSRTVAAPSVFIFPPSDEQLKSGTASVVCLLNNFYPREAKVQWKVDNALQSGNSQESVTEQDSKDSTYSLSSTLTLSKADYEKHKVYACEVTHQGLSSPVTKSFNRGEC chain 2: MEFGLSWLFLVAILKGVQCQVQLVQSGAEVKKPGESLKVSCKASGYTFTSYYMHWVRQAPGQGLEWMGIINPSGGSTSYAQKFQGRVTMTRDTSTSTVYMELSSLRSEDTAVYYCARGSAYYYDFADYWGQGTLVTVSSGGGSGGGGDIVMTQSPDSLTVSLGERTTINCKSSQSVLDSSTNKNSLAWYQQKPGQPPKLLLSWASTRESGIPDRFSGSGSGTDFTLTIDSPQPEDSATYYCQQSAHFPITFGQGTRLEIKGGGGSGGGGSGGGGSASTKGPSVFPLAPSSKSTSGGTAALGCLVKDYFPEPVTVSWNSGALTSGVHTFPAVLQSSGLYSLSSVVTVPSSSLGTQTYICNVNHKPSNTKVDKKVEPKSCDKTHTCPPCPAPEAAGGPSVFLFPPKPKDTLMISRTPEVTCVVVDVSHEDPEVKFNWYVDGVEVHNAKTKPREEQYNSTYRVVSVLTVLHQDWLNGKEYKCKVSNKALPAPIEKTISKAKGQPREPQVYTLPPSREEMTKNQVSLSCAVKGFYPSDIAVEWESNGQPENNYKTTPPVLDSDGSFFLVSKLTVDKSRWQQGNVFSCSVMHEALHNRYTQKSLSLSPGKGGSHHHHHH chain 3: not shown chain 4: not shown
3.08 | 4.51 | – | CD33/CD16A/IL-15 trifunctional fusion protein QP42914285 (FC with L234A/L235A mutation for eliminating function) (bispecific antibody) light: SYVLTQPSSVSVAPGQTATISCGGHNIGSKNVHWYQQRPGQSPVLVIYQDNKRPSGIPERFSGSNSGNTATLTISGTQAMDEADYYCQVWDNYSVLFGGGTKLTVLRTVAAPSVFIFPPSDEQLKSGTASVVCLLNNFYPREAKVQWKVDNALQSGNSQESVTEQDSKDSTYSLSSTLTLSKADYEKHKVYACEVTHQGLSSPVTKSFNRGEC heavy: QVQLVQSGAEVKKPGESLKVSCKASGYTFTSYYMHWVRQAPGQGLEWMGIINPSGGSTSYAQKFQGRVTMTRDTSTSTVYMELSSLRSEDTAVYYCARGSAYYYDFADYWGQGTLVTVSSASTKGPSVFPLAPSSKSTSGGTAALGCLVKDYFPEPVTVSWNSGALTSGVHTFPAVLQSSGLYSLSSVVTVPSSSLGTQTYICNVNHKPSNTKVDKKVEPKSCDKTHTCPPCPAPEAAGGPSVFLFPPKPKDTLMISRTPEVTCVVVDVSHEDPEVKFNWYVDGVEVHNAKTKPREEQYNSTYRVVSVLTVLHQDWLNGKEYKCKVSNKALPAPIEKTISKAKGQPREPQVYTLPPSREEMTKNQVSLSCAVKGFYPSDIAVEWESNGQPENNYKTTPPVLDSDGSFFLVSKLTVDKSRWQQGNVFSCSVMHEALHNRYTQKSLSLSPGKGGSHHHHHH chain 1: not shown chain 2: not shown
– | – | 4.76 | QP42714274 (antibody) chain 1: not shown chain 2: EVQLLESGGGLVQPGGSLRLSCAVSGFTFNSFAMSWVRQAPGKGLEWVSAISGSGGGTYYADSVKGRFTISRDNSKNTLYLQMNSLRAEDTAVYFCAKDKILWFGEPVFDYWGQGTLVTVSSASTKGPSVFPLAPSSKSTSGGTAALGCLVKDYFPEPVTVSWNSGALTSGVHTFPAVLQSSGLYSLSSVVTVPSSSLGTQTYICNVNHKPSNTKVDKKVEPKSCDKTHTCPPCPAPEAAGGPSVFLFPPKPKDTLMISRTPEVTCVVVDVSHEDPEVKFNWYVDGVEVHNAKTKPREEQYNSTYRVVSVLTVLHQDWLNGKEYKCKVSNKALPAPIEKTISKAKGQPREPQVYTLPPSREEMTKNQVSLSCAVKGFYPSDIAVEWESNGQPENNYKTTPPVLDSDGSFFLVSKLTVDKSRWQQGNVFSCSVMHEALHNRYTQKSLSLSPGKGGSHHHHHH chain 3: not shown chain 4: not shown
13.4 | – | – | CD33/CD16A/IL-15 trifunctional fusion protein QP43394340 (FC with L234A/L235A mutation for eliminating function) (bispecific antibody) chain 1: not shown chain 2: not shown light: DIVMTQSPDSLTVSLGERTTINCKSSQSVLDSSTNKNSLAWYQQKPGQPPKLLLSWASTRESGIPDRFSGSGSGTDFTLTIDSPQPEDSATYYCQQSAHFPITFGQGTRLEIKRTVAAPSVFIFPPSDEQLKSGTASVVCLLNNFYPREAKVQWKVDNALQSGNSQESVTEQDSKDSTYSLSSTLTLSKADYEKHKVYACEVTHQGLSSPVTKSFNRGEC heavy: QVQLVQSGAEVKKPGESVKVSCKASGYTFTNYGMNWVKQAPGQGLEWMGWINTYTGEPTYADKFQGRVTMTTDTSTSTAYMEIRNLGGDDTAVYYCARWSWSDGYYVYFDYWGQGTSVTVSSASTKGPSVFPLAPSSKSTSGGTAALGCLVKDYFPEPVTVSWNSGALTSGVHTFPAVLQSSGLYSLSSVVTVPSSSLGTQTYICNVNHKPSNTKVDKKVEPKSCDKTHTCPPCPAPEAAGGPSVFLFPPKPKDTLMISRTPEVTCVVVDVSHEDPEVKFNWYVDGVEVHNAKTKPREEQYNSTYRVVSVLTVLHQDWLNGKEYKCKVSNKALPAPIEKTISKAKGQPREPQVYTLPPSREEMTKNQVSLSCAVKGFYPSDIAVEWESNGQPENNYKTTPPVLDSDGSFFLVSKLTVDKSRWQQGNVFSCSVMHEALHNRYTQKSLSLSPGK
8.08 | – | – | CD33/CD16A/IL-15 trifunctional fusion protein QP743745 (FC wild-type) (bispecific antibody) chain 1: not shown chain 2: not shown light: DIVMTQSPDSLTVSLGERTTINCKSSQSVLDSSTNKNSLAWYQQKPGQPPKLLLSWASTRESGIPDRFSGSGSGTDFTLTIDSPQPEDSATYYCQQSAHFPITFGQGTRLEIKRTVAAPSVFIFPPSDEQLKSGTASVVCLLNNFYPREAKVQWKVDNALQSGNSQESVTEQDSKDSTYSLSSTLTLSKADYEKHKVYACEVTHQGLSSPVTKSFNRGEC heavy: QVQLVQSGAEVKKPGESVKVSCKASGYTFTNYGMNWVKQAPGQGLEWMGWINTYTGEPTYADKFQGRVTMTTDTSTSTAYMEIRNLGGDDTAVYYCARWSWSDGYYVYFDYWGQGTSVTVSSASTKGPSVFPLAPSSKSTSGGTAALGCLVKDYFPEPVTVSWNSGALTSGVHTFPAVLQSSGLYSLSSVVTVPSSSLGTQTYICNVNHKPSNTKVDKKVEPKSCDKTHTCPPCPAPELLGGPSVFLFPPKPKDTLMISRTPEVTCVVVDVSHEDPEVKFNWYVDGVEVHNAKTKPREEQYNSTYRVVSVLTVLHQDWLNGKEYKCKVSNKALPAPIEKTISKAKGQPREPQVYTLPPSREEMTKNQVSLSCAVKGFYPSDIAVEWESNGQPENNYKTTPPVLDSDGSFFLVSKLTVDKSRWQQGNVFSCSVMHEALHNRYTQKSLSLSPGK
9.63 | – | – | CD33/CD16A bispecific antibody QP4115777778 (FC wild-type) (bispecific antibody) not shown heavy: QVQLVQSGAEVKKPGESVKVSCKASGYTFTNYGMNWVKQAPGQGLEWMGWINTYTGEPTYADKFQGRVTMTTDTSTSTAYMEIRNLGGDDTAVYYCARWSWSDGYYVYFDYWGQGTSVTVSSASTKGPSVFPLAPSSKSTSGGTAALGCLVKDYFPEPVTVSWNSGALTSGVHTFPAVLQSSGLYSLSSVVTVPSSSLGTQTYICNVNHKPSNTKVDKKVEPKSCDKTHTCPPCPAPELLGGPSVFLFPPKPKDTLMISRTPEVTCVVVDVSHEDPEVKFNWYVDGVEVHNAKTKPREEQYNSTYRVVSVLTVLHQDWLNGKEYKCKVSNKALPAPIEKTISKAKGQPREPQVYTLPPSREEMTKNQVSLSCAVKGFYPSDIAVEWESNGQPENNYKTTPPVLDSDGSFFLVSKLTVDKSRWQQGNVFSCSVMHEALHNRYTQKSLSLSPGKGGSHHHHHH light: DIVMTQSPDSLTVSLGERTTINCKSSQSVLDSSTNKNSLAWYQQKPGQPPKLLLSWASTRESGIPDRFSGSGSGTDFTLTIDSPQPEDSATYYCQQSAHFPITFGQGTRLEIKRTVAAPSVFIFPPSDEQLKSGTASVVCLLNNFYPREAKVQWKVDNALQSGNSQESVTEQDSKDSTYSLSSTLTLSKADYEKHKVYACEVTHQGLSSPVTKSFNRGEC
– | 21.4 | ~0.289 | QP43354336 (antibody, V domains shown) VH: QVQLVQSGAEVKKPGESLKVSCKASGYTFTSYYMHWVRQAPGQGLEWMGIINPSGGSTSYAQKFQGRVTMTRDTSTSTVYMELSSLRSEDTAVYYCARGSAYYYDFADYWGQGTLVTVSS VL: MDMRVPAQLLGLLLLWFPGSRCSYVLTQPSSVSVAPGQTATISCGGHNIGSKNVHWYQQRPGQSPVLVIYQDNKRPSGIPERFSGSNSGNTATLTISGTQAMDEADYYCQVWDNYSVLFGGGTKLTVLR
– | – | 18.4 | QP34483449 (antibody, V domains shown) VH: EVQLVESGGGLVQPGGSLRLSCAASGFDFSRYWMSWVRQAPGKGLEWIGEINPDSSTINYAPSLKDKFIISRDNAKNSLYLQMNSLRAEDTAVYYCARPDGNYWYFDVWGQGTLVTVSS VL: MDMRVPAQLLGLLLLWFPGSRCDIQMTQSPSSLSASVGDRVTITCKASQDVGIAVAWYQQKPGKVPKLLIYWASTRHTGVPDRFSGSGSGTDFTLTISSLQPEDVATYYCQQYSSYPYTFGQGTKVEIKR
